Experiments:
[1] = molecular target: T1, BcUGlcAE (Bacillus cytotoxicus, UniProt A7GQD3); assay: HPLC product assay, inhibition; format: biochemical; conditions: 1 mM UDP-GlcA, 1 mM NAD+, 50 mM phosphate pH 7.6, 37 °C
T1 sequence (A7GQD3 1-314): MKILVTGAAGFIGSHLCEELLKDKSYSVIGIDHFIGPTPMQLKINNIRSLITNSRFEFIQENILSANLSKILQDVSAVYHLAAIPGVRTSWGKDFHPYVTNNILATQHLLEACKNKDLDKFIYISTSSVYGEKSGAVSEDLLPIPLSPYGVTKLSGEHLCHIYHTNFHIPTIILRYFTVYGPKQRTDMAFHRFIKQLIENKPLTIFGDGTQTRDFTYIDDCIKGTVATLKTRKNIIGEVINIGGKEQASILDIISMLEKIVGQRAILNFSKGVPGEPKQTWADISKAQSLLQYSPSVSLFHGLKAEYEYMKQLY

[2] = substrate: Cc1cn([C@H]2C[C@H](O)[C@@H](COP(=O)(O)OP(=O)(O)O[C@H]3O[C@H](C(=O)O)[C@@H](O)[C@H](O)[C@H]3O)O2)c(=O)[nH]c1=O; assay: HPLC; format: biochemical, Bacillus cytotoxicus; conditions: 1 mM NAD+, 50 mM sodium phosphate pH 7.6, 37 °C
[3] = substrate: O=C(O)[C@H]1O[C@H](OP(=O)(O)OP(=O)(O)OC[C@H]2O[C@@H](n3ccc(=O)[nH]c3=O)[C@H](O)[C@@H]2O)[C@H](O)[C@@H](O)[C@@H]1O; assay: HPLC; format: biochemical, Bacillus cytotoxicus; conditions: 1 mM NAD+, 50 mM sodium phosphate pH 7.6, 37 °C

Molecule: O=c1ccn([C@@H]2O[C@H](COP(=O)(O)OP(=O)(O)O[C@H]3OC[C@@H](O)[C@H](O)[C@H]3O)[C@@H](O)[C@H]2O)c(=O)[nH]1 [UDP-Xyl]
- inhibition [1]: the epimerase was highly inhibited by UDP and to a lesser extent by UDP-Xyl

Molecule: O=c1ccn([C@@H]2O[C@H](COP(=O)(O)OP(=O)(O)O)[C@@H](O)[C@H]2O)c(=O)[nH]1 [UDP]
- inhibition [1]: the epimerase was highly inhibited by UDP and to a lesser extent by UDP-Xyl

B1: BcUGlcAE (Bacillus cytotoxicus NVH 391-98) (protein)
chain: MKILVTGAAGFIGSHLCEELLKDKSYSVIGIDHFIGPTPMQLKINNIRSLITNSRFEFIQENILSANLSKILQDVSAVYHLAAIPGVRTSWGKDFHPYVTNNILATQHLLEACKNKDLDKFIYISTSSVYGEKSGAVSEDLLPIPLSPYGVTKLSGEHLCHIYHTNFHIPTIILRYFTVYGPKQRTDMAFHRFIKQLIENKPLTIFGDGTQTRDFTYIDDCIKGTVATLKTRKNIIGEVINIGGKEQASILDIISMLEKIVGQRAILNFSKGVPGEPKQTWADISKAQSLLQYSPSVSLFHGLKAEYEYMKQLY
- Km [2]: 180 ± 10 µM
- kcat [2]: 2.1 ± 0.1 s⁻¹
- kcat/Km [2]: 12000 ± 400 M⁻¹ s⁻¹
- Km [3]: 120 ± 10 µM
- kcat [3]: 3.2 ± 0.1 s⁻¹
- kcat/Km [3]: 26000 ± 1400 M⁻¹ s⁻¹

From PMC3240692 (The FEBS journal, 2011)
